The values that follow come from patent US20180327499A1 (INSERM INSTITUT NATIONAL DE LA SANT ET DE LA RECHERCHE M …, published 2018).

Assay [1] addresses T1, recombinant human NKG2D/Fc chimera (R&D Systems) (human, UniProt P26718 78-216).
T1 construct: Bought reagent; The order Fc then NKG2D follows the printed name 'Fc-NKG2D'; also called Fc-NKG2D; NKGD2-Fc human; Fc part of the bought chimera not given
T1 sequence (looked up): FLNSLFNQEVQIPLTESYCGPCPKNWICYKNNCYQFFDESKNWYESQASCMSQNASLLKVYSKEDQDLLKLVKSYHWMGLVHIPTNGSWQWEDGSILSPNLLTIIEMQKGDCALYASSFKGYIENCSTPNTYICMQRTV
Briefly: ELISA on plate coated with Fc-NKG2D, dose-response, one site total binding fit.

Assay [2] has as its target T2, NKG2D on HEK-293T cells co-transfected with NKG2D and DAP10 (UniProt P26718 1-216, limits assumed).
T2 construct: whole, on cells; DAP10 is co-expressed for surface expression; also called NKG2D-DAP10 co-transfected HEK293T cells
T2 sequence (looked up): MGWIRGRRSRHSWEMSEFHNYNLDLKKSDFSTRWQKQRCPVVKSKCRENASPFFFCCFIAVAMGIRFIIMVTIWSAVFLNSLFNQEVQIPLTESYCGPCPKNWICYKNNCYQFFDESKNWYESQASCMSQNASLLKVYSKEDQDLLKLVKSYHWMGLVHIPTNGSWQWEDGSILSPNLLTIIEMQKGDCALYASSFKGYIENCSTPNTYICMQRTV
Nature of the assay: flow cytometry on NKG2D/DAP10-transfected HEK-293 cells, one site total binding fit. In general terms: Flow cytometry measures light scatter and fluorescence of single cells or particles in a stream.

B1: sdAb ET2F9 (VHH)
VHH: QVQLVQSGGGLVQPGGSLRLSCAASGFTFDDYAMSWVRQAPGKGLEWVSAISWSGRTTYYAESMKGRFTTSRDNAKNTLYLQMNSLKPEDTALYYCARGDVAIRGNLDAWGQGTQVTVSS
notes: It carries a 6His tag (detected with anti-6His / anti-his antibodies); also called ET2F09; sdAb F9
As usually defined, the EC50 is the concentration that produces a half-maximal response. The Kd is the free concentration of one partner at which half of the binding sites on the other are occupied at equilibrium, for simple one-to-one binding. A high value points to a looser complex. As to B1, the 50% effective concentration (EC50) in assay [1] worked out at 44 nM. In addition, in assay [2], the Kd turned out to be 625 nM.
